{
  "source": "paper PMC8246471",
  "binders": {"B1": {"name": "Fork 1 (mixed)", "DNA 1": "CTAGAGACGCTGCCGAATTCTGGCTTGGATCTGATGCTGTCTAGAGGCCTCCACTATGAAATCGCTGCA", "DNA 2": "CCGGGCTGCAGAGCTCATAGATCGATAGTCTCTAGACAGCATCAGATCCAAGCCAGAATTCGGCAGCGTCT"}},
  "biological_target": "PriA helicase (UniProt P17888 1-732)",
  "sequence (P17888 whole entry)": "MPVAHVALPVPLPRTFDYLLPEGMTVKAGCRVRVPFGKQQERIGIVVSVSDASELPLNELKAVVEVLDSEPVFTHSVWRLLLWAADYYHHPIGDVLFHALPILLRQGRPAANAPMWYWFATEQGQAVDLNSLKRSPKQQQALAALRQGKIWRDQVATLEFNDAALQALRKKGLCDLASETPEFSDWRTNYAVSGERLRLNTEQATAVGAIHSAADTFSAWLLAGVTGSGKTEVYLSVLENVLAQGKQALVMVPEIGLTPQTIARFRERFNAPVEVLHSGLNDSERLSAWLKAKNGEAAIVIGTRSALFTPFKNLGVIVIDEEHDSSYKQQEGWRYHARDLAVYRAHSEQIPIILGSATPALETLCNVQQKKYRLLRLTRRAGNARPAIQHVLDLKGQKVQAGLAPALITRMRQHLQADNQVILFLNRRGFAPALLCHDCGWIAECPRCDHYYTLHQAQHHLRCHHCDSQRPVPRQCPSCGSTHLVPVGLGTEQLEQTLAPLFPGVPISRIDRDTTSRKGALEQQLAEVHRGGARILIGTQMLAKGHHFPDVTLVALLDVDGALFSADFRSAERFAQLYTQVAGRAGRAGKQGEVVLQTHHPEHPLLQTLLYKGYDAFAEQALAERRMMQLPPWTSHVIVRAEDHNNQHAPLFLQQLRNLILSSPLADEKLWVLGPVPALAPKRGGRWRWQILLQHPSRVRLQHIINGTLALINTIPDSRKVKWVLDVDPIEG",
  "test": "ATPase DNA titration",
  "data": [
    {"binder": "B1", "values": [
      {"measurement": "apparent K (half saturation)", "value": "5.7 ± 0.7", "unit": "nM"}
    ]}
  ]
}
